Results reported in US20080306007A1 (NEWCASTLE INNOVATION, published 2008).
Where a chain is given by its changes, count along the chain named.

B1: DynI783-796 peptide (peptide)
peptide: RRAPAVPPARPGSR
notes: Synthetic peptide of the site 2 and site 3 region of dynamin I
B2: GST-DynI-2D (other, rat, UniProt P21575 746-864, looked up)
chain: NTTTVSTPMPPPVDDSWLQVQSVPAGRRSPTSSPTPQEEAPAVPPARPGSRGPAPGPPPAGSALGGAPPVPSRPGASPDPFGPPPQVPSRPNRAPPGVPSRSGQASPSRPESPRPPFDL
notes: range 746-864; not shown: glutathione S-transferase tag from vector pGEX4T-1
B3: GST-DynI-2E (other, rat, UniProt P21575 746-864, looked up)
chain: B2 chain with E38A, E39A
notes: as for B2

Columns and labels:
[1] = target: T1, endophilin I (native, from rat brain lysate or synaptosomes) (rat, UniProt O35179 1-352); test: peptide competition in GST-DynI-PRD pull-down from rat brain lysate, Western blot
T1 construct: mature
T1 sequence (O35179 whole entry): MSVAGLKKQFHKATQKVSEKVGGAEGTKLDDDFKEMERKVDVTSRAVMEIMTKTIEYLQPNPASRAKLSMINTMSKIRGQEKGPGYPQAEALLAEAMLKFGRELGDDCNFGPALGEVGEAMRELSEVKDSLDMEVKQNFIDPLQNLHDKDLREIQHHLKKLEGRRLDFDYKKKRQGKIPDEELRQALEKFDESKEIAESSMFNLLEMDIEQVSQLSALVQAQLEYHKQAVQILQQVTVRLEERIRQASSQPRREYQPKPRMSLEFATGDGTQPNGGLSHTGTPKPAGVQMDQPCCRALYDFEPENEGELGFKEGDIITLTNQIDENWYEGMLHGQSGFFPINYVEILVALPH
Protocol: Total rat brain extract was prepared by homogenising brain tissue in ice-cold lysis buffer (1% Triton X-100, 150 mM NaCl, 25 mM Tris pH 7.4, 1 mM EDTA, 1 mM EGTA, 20 μg/ml leupeptin, 1 mM phenylmethylsulfonyl fluoride and EDTA-free Complete protease inhibitor (Roche)). The homogenate was centrifuged twice at 75,600 g for 30 min at 4° C. The supernatant was pre-cleared by addition of GSH-sepharose beads for 1 h, pelleted at 50 g for 5 min at 4° C., and the supernatant collected. GST-DynI-PRD recombinant proteins were then incubated with an equal amount of tissue lysate at 4° C. for 1 h. Beads were washed extensively with ice-cold 20 mM Tris pH 7.4 containing 1 mM EGTA, eluted in 2×SDS-PAGE sample buffer, resolved on 7.5-15% gradient SDS gels and stained with colloidal Coomassie Blue. Identification of proteins was by matrix-assisted laser desorption ionization time-of-flight mass spectrometry (MALDI-TOF MS). Some peptides were sequenced by tandem MS/MS.
A common characteristic of most binding sites for SH3 domains is the presence of the core amino acid motif PxxP, which is often followed or preceded by a basic Arg residue. There are 13 such motifs in the dynamin I PRD (numbered from site 1 at the N-terminus of the PRD at Pro-753 in dynamin I). […]

[2] = target: T2, syndapin I (native, from rat brain lysate or synaptosomes) (rat, UniProt Q9Z0W5 1-441); test: GST pull-down from rat brain lysate
T2 construct: also called PACSIN I; 52 kDa band
T2 sequence (Q9Z0W5 whole entry): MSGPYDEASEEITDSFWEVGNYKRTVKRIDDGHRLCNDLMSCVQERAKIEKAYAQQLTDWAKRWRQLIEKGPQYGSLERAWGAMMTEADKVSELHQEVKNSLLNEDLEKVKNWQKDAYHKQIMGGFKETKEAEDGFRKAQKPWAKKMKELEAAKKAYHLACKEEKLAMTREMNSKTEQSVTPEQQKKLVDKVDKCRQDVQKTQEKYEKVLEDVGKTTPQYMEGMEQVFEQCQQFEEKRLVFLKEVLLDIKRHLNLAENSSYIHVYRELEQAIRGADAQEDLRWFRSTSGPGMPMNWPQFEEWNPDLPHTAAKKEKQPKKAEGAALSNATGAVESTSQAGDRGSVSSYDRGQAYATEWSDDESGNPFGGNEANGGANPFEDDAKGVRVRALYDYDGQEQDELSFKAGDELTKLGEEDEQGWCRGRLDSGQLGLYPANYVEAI

Row | Binder | fold weaker inhibitory effect than on syndapin I binding [1] [fold] | binding result [2]
1 | B1 | 5 | –
2 | B2 | – | no binding
3 | B3 | – | no binding
